Assays:
[1] = target: T1, human CD47 expressed on cells (CD47 expressing CHO cells, Jurkat, HL60, DLD1, Raji) (human, UniProt Q08722 19-292); test: flow cytometry on HL60 cells, Fab, frequency
T1 construct: also called CHO-CD47; IAP

[2] = target: T1, human CD47 expressed on cells (CD47 …); test: flow cytometry on DLD1 cells, Fab, frequency
[3] = target: T1, human CD47 expressed on cells (CD47 …); test: EC50 (nM) as grade, flow cytometry, Fab on DLD1 cells; legend +++: <5 nM
[4] = target: T1, human CD47 expressed on cells (CD47 …); test: EC50 (nM) as grade, flow cytometry, Fab on HL60 cells; legend ++: >1 nM and <7 nM
His-tagged CD47 [5] = target: T2, His-tagged CD47 (Homo sapiens (Human), UniProt Q08722 19-139, limits assumed); test: IC50 (nM) MFI as grade, blocking His-tagged CD47 binding to SIRPα-CHO cells; legend +++: <2 nM
T2 construct: not shown: His tag

[6] = target: T3, biotin labelled polyhistidine tagged CD47 protein (Novoprotein, Cat#321) (human, UniProt Q08722 19-139, biotin labelled (site not stated)); test: IC50 (nM) as grade, Fab blocking biotinylated CD47 binding to SIRPα-CHO cells; legend +++: <10 nM
T3 construct: Bought protein; also called biotinylated CD47; biotinylated human CD47 protein; not shown: polyhistidine tag

His-tagged CD47 [7] = target: T2, His-tagged CD47; test: IC50 (nM) Frequency as grade, blocking His-tagged CD47 binding to SIRPα-CHO cells; legend ++: >2 nM and <2.7 nM
[8] = target: T3, biotin labelled polyhistidine tagged …; test: flow cytometry blocking assay: biotinylated CD47 with Fab on SIRPα-expressing CHO cells (SIRPα is the blocked ligand), frequency
His-tagged CD47 [9] = target: T2, His-tagged CD47; test: flow cytometry blocking assay: His-tagged CD47 with Fab on SIRPα-expressing CHO cells (SIRPα is the blocked ligand), anti-His-APC, MFI
His-tagged CD47 [10] = target: T2, His-tagged CD47; test: flow cytometry blocking assay: His-tagged CD47 with Fab on SIRPα-expressing CHO cells (SIRPα is the blocked ligand), anti-His-APC, frequency
[11] = target: T1, human CD47 expressed on cells (CD47 …); test: EC50 (nM) as grade, flow cytometry, Fab on HL60 cells; legend +: >7 nM
[12] = target: T3, biotin labelled polyhistidine tagged …; test: IC50 (nM) as grade, Fab blocking biotinylated CD47 binding to SIRPα-CHO cells; legend ++: >10 nM and <65 nM

Row | Binder | EC50 (read off the curve) [1] [nM] | EC50 (read off the curve) [2] [nM] | EC50 [3] [nM] | EC50 [4] [nM] | IC50 (His-tagged CD47 [5]) [nM] | IC50 [6] [nM] | IC50 (His-tagged CD47 [7]) [nM] | IC50 (read off the curve) [8] [nM] | IC50 (read off the curve) (His-tagged CD47 [9]) [nM] | IC50 (read off the curve) (His-tagged CD47 [10]) [nM] | EC50 [11] [nM] | IC50 [12] [nM]
1 | ABU9 (Fab) (Fab, V domains shown, Phage-derived Fab: murine VL and VH fused to human CL and CH1) VH: EVQLQQSGPELVKPGASVKLSCKASGFTFTNYYIHWVKQRPGQGPEWIGWIYLGSGNTKYNEKFKGKATLTADTSSSTAYLQLSTLISEDSAVYYCARYDYDLYLDSWGQGTTVTVSS VL: DIKMNQSPSSLSASLGDTITITCHASQNINVWLSWYQQKPGNIPKLLIYKASNLHTGVPSRFSGSGSGTGFTLTISSLQPEDIATYYCQQGQSYPLTFGAGTKLELK | ~6 | ~2 | < 5 | 1 to 7 | < 2 | < 10 | 2 to 2.7 | ~9 | ~2 | ~3 | – | –
2 | ABU14 (Fab) (Fab, V domains shown, Phage-derived Fab: murine VL and VH fused to human CL and CH1) VH: EVQLQQSGPELVKPGASVKISCKASGYSFTNYHIHWVKQRPGQGLEWIGWIYPGSGNTKYNEKFKGMAILTADTSSSTAYMQLSSLTSEDSAVYYCARYDYDLYLHSWGQGTTVTVSS VL: DIQINQSPSSLSASLGDTITITCHASQNINVWLSWYQQKPGNIPKLLIYKASNLHTGVPSRFSGSGSGTGFTLTISSLQPEDIATYYCQQGQSYPLTFGAGTKLEIK | ~10 | ~4 | < 5 | – | < 2 | – | 2 to 2.7 | ~20 | ~2 | ~3 | > 7 | 10 to 65

— patent US20200247886A1 (ZLIP, published 2020)
